Test results published in the supplement of paper PMC5998384.

Columns and labels:
HeLa Kyoto [1] = assay: solubility change mitosis vs G1/S (difference of NP-40 vs SDS log2 ratios) (log2 ratio difference); higher = more soluble in mitosis
HeLa Kyoto [2] = assay: solubility in G1/S (NP-40 vs SDS abundance) (log2 ratio); higher = more soluble; conditions: cell cycle stage: G1/S
HeLa Kyoto [3] = assay: melting temperature (median over replicates), in situ; higher = more thermally stable
HeLa Kyoto [4] = assay: thermal stability score vs G1/S (z-score of summed log2 fold changes over temperatures); higher = more thermally stable than in G1/S
[5] = cell cycle stage: early G1 (4.5 h after nocodazole release)
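Wherever melting temperature (median over replicates), in situ is given: HeLa Kyoto cells synchronized by double thymidine or nocodazole block, proteins quantified by TMT10plex mass spectrometry, three independent biological replicates.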
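Wherever solubility change mitosis vs G1/S (difference of NP-40 vs SDS log2 ratios) is given: synchronized HeLa Kyoto cells (double thymidine block for G1/S, nocodazole release for mitosis), protein amounts in NP-40 versus SDS lysates quantified by mass spectrometry, three biological replicates.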
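Wherever solubility in G1/S (NP-40 vs SDS abundance) is given: HeLa Kyoto cells arrested at G1/S by double thymidine block, proteins quantified by TMT10plex mass spectrometry in mild NP-40 versus SDS extracts, three biological replicates.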
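Wherever thermal stability score vs G1/S (z-score of summed log2 fold changes over temperatures) is given: synchronized HeLa Kyoto cells, proteins quantified by TMT10plex mass spectrometry, three biological replicates, mitosis taken 0.5 h after nocodazole release, G1/S directly after double thymidine block.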

Chain of NARFL (chain, as listed by the source): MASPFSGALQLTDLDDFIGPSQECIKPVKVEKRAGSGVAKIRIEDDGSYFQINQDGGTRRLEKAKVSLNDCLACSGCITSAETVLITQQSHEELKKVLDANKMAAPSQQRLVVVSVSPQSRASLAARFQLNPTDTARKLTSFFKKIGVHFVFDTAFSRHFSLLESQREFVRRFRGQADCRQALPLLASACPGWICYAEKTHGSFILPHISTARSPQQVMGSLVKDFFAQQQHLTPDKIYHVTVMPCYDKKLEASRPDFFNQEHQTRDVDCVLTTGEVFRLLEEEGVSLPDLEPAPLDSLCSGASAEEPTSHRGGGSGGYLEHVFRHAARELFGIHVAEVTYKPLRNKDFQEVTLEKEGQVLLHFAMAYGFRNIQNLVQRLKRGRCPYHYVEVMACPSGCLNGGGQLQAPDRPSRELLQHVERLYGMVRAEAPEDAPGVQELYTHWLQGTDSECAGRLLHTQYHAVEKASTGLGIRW
Chain of PRSS21 (chain, as listed by the source): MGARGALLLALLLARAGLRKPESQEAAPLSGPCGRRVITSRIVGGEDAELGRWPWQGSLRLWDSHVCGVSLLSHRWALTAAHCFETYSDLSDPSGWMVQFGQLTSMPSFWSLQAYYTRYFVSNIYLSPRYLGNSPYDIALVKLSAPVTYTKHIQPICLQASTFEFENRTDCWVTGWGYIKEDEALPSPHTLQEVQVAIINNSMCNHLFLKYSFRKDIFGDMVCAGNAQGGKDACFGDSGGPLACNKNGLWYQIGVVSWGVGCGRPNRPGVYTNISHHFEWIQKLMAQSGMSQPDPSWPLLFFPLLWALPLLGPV
Chain of PNO1 (chain, as listed by the source): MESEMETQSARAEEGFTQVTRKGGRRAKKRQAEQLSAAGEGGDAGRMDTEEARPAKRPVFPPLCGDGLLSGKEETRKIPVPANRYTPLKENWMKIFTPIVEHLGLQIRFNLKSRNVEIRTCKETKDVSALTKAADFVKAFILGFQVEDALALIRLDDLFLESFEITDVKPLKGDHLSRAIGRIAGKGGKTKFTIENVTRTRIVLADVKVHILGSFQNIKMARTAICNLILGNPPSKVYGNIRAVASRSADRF
Chain of PPIC (chain, as listed by the source): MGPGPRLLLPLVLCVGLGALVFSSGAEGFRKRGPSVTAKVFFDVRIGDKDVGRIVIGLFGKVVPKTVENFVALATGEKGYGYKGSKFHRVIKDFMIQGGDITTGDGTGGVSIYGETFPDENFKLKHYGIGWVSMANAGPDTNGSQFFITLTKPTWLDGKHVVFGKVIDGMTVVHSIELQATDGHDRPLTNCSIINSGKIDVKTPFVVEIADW
Chain of PPIB (chain, as listed by the source): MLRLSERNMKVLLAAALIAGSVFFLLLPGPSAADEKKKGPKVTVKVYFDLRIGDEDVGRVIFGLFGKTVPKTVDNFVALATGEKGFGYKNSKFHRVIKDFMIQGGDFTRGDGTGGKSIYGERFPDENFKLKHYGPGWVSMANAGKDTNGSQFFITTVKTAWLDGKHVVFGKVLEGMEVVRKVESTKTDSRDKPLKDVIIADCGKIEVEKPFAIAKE
Chain of PELP1 (chain, as listed by the source): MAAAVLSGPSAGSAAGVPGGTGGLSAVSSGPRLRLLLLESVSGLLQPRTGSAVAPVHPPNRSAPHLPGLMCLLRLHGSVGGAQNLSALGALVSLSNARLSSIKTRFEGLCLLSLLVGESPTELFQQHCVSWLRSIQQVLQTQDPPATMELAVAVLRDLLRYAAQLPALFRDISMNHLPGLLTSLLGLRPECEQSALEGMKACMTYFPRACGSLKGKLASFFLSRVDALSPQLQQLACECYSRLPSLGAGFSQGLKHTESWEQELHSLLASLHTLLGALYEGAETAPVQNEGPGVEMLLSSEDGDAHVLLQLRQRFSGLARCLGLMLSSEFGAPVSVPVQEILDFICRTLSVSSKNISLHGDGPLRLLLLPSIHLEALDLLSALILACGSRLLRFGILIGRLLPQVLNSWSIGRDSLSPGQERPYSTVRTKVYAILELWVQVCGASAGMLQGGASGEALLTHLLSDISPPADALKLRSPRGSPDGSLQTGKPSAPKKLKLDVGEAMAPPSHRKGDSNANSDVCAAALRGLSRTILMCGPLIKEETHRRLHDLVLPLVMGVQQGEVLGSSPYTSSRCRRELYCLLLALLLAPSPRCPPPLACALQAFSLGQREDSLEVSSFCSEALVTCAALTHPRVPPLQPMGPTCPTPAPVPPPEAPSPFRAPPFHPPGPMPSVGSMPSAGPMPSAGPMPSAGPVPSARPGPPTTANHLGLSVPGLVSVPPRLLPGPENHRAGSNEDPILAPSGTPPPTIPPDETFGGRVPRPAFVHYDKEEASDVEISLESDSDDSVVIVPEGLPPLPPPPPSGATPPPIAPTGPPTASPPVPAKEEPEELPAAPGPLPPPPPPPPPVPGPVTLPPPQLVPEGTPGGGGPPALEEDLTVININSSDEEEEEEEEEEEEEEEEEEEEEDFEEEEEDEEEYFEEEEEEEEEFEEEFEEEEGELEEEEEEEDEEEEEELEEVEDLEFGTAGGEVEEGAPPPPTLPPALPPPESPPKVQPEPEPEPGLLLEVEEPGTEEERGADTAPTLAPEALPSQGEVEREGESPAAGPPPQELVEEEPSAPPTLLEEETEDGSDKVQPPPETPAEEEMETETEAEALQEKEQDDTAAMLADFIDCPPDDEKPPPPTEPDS
Chain of NRBP1 (chain, as listed by the source): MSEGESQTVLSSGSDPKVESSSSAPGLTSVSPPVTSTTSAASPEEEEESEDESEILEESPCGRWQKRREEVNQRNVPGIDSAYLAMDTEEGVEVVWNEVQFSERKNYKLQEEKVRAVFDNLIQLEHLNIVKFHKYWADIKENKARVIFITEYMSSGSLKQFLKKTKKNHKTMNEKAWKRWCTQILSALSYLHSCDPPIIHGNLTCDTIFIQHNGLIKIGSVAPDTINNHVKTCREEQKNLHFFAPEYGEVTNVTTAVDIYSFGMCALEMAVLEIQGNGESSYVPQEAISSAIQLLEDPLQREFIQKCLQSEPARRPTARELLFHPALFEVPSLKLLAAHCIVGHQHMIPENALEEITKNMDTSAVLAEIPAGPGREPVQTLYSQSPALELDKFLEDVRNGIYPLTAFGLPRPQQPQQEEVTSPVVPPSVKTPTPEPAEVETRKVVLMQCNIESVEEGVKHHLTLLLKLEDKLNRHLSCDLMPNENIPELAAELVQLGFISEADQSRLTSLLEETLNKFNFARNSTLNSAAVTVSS
Chain of NDRG3 (chain, as listed by the source): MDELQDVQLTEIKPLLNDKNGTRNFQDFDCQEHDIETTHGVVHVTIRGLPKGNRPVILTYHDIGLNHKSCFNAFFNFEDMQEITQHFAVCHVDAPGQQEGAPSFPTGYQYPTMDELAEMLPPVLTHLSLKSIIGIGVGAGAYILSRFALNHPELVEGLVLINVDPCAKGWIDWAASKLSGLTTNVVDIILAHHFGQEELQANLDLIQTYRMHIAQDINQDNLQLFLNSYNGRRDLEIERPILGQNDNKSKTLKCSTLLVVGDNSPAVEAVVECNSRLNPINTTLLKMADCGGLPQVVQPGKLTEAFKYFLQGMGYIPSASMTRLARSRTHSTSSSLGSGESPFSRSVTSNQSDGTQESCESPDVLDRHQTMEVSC
Chain of PTBP3 (chain, as listed by the source): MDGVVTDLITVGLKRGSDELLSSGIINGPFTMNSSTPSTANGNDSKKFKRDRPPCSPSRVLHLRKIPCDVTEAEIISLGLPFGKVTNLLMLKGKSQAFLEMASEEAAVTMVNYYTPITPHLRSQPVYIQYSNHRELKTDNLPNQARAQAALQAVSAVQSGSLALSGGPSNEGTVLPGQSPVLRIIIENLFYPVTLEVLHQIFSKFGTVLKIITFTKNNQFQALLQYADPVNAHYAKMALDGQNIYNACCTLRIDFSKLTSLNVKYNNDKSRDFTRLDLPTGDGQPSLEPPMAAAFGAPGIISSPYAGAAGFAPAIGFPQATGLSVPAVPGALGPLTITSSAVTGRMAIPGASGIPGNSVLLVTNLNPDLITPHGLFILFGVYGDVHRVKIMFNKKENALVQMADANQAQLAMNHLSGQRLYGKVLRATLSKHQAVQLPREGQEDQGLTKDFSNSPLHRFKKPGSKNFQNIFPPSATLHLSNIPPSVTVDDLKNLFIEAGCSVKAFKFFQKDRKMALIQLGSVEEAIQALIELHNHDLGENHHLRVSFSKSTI
Chain of OXCT1 (chain, as listed by the source): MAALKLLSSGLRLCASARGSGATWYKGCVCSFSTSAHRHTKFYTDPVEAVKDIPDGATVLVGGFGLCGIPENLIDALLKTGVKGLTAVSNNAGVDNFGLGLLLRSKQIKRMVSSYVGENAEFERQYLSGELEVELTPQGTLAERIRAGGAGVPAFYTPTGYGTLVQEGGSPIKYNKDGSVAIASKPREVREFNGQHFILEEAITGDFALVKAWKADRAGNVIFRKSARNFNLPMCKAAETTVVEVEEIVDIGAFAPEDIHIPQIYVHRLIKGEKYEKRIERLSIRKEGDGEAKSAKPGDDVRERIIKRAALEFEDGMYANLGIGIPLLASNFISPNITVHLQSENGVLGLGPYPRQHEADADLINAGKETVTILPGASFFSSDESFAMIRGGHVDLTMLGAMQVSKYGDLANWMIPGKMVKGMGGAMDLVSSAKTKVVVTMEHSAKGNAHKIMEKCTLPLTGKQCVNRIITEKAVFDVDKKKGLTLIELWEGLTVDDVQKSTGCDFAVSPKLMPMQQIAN
Chain of NUDC (chain, as listed by the source): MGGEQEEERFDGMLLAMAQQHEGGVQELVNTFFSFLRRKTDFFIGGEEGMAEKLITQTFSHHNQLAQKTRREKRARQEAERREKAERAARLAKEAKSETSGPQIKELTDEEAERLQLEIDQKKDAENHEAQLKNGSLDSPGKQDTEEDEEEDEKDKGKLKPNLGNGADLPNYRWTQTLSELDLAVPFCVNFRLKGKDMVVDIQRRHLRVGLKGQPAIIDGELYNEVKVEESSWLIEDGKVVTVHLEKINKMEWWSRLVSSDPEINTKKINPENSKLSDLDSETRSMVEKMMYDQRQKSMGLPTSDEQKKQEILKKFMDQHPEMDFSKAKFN

Substance	solubility change mitosis (log2) (HeLa Kyoto [1])	solubility in G1/S (log2) (HeLa Kyoto [2])	melting temperature (HeLa Kyoto [3]; cell cycle stage: G1/S) [°C]	melting temperature (HeLa Kyoto [3]; cell cycle stage: mitosis) [°C]	thermal stability score (HeLa Kyoto [4]; [5])	thermal stability score (HeLa Kyoto [4]; cell cycle stage: mitosis)
MWRVKKLSLSLSPSPQTGKPSMRTPLRELTLQPGALTNSGKRSPACSSLTPSLCKLGLQEGSNNSSPVDFVNNKRTDLSSEHFSHSSKWLETCQHESDEQPLDPIPQISSTPKTSEEAVDPLGNYMVKTIVLVPSPLGQQQDMIFEARLDTMAETNSISLNGPLRTDDLVREEVAPCMGDRFSEVAAVSEKPIFQESPSHLLEESPPNPCSEQLHCSKESLSSRTEAVREDLVPSESNAFLPSSVLWLSPSTALAADFRVNHVDPEEEIVEHGAMEEREMRFPTHPKESETEDQALVSSVEDILSTCLTPNLVEMESQEAPGPAVEDVGRILGSDTESWMSPLAWLEKGVNTSVMLENLRQSLSLPSMLRDAAIGTTPFSTCSVGTWFTPSAPQEKSTNTSQTGLVGTKHSTSETEQLLCGRPPDLTALSRHDLEDNLLSSLVILEVLSRQLRDWKSQLAVPHPETQDSSTQTDTSHSGITNKLQHLKESHEMGQALQQARNVMQSWVLISKELISLLHLSLLHLEEDKTTVSQESRRAETLVCCCFDLLKKLRAKLQSLKAEREEARHREEMALRGKDAAEIVLEAFCAHASQRISQLEQDLASMREFRGLLKDAQTQLVGLHAKQEELVQQTVSLTSTLQQDWRSMQLDYTTWTALLSRSRQLTEKLTVKSQQALQERDVAIEEKQEVSRVLEQVSAQLEECKGQTEQLELENSRLATDLRAQLQILANMDSQLKELQSQHTHCAQDLAMKDELLCQLTQSNEEQAAQWQKEEMALKHMQAELQQQQAVLAKEVRDLKETLEFADQENQVAHLELGQVECQLKTTLEVLRERSLQCENLKDTVENLTAKLASTIADNQEQDLEKTRQYSQKLGLLTEQLQSLTLFLQTKLKEKTEQETLLLSTACPPTQEHPLPNDRTFLGSILTAVADEEPESTPVPLLGSDKSAFTRVASMVSLQPAETPGMEESLAEMSIMTTELQSLCSLLQESKEEAIRTLQRKICELQARLQAQEEQHQEVQKAKEADIEKLNQALCLRYKNEKELQEVIQQQNEKILEQIDKSGELISLREEVTHLTRSLRRAETETKVLQEALAGQLDSNCQPMATNWIQEKVWLSQEVDKLRVMFLEMKNEKEKLMIKFQSHRNILEENLRRSDKELEKLDDIVQHIYKTLLSIPEVVRGCKELQGLLEFLS [SPAG5]	-0.134	0.306	48.2	48.4	0.87	2.82
MYGASGGRAKPERKSGAKEEAGPGGAGGGGSRVELLVFGYACKLFRDDERALAQEQGQHLIPWMGDHKILIDRYDGRGHLHDLSEYDAEYSTWNRDYQLSEEEARIEALCDEERYLALHTDLLEEEARQEEEYKRLSEALAEDGSYNAVGFTYGSDYYDPSEPTEEEEPSKQREKNEAENLEENEEPFVAPLGLSVPSDVELPPTAKMHAIIERTASFVCRQGAQFEIMLKAKQARNSQFDFLRFDHYLNPYYKFIQKAMKEGRYTVLAENKSDEKKKSGVSSDNEDDDDEEDGNYLHPSLFASKKCNRLEELMKPLKVVDPDHPLAALVRKAQADSSTPTPHNADGAPVQPSQVEYTADSTVAAMYYSYYMLPDGTYCLAPPPPGIDVTTYYSTLPAGVTVSNSPGVTTTAPPPPGTTPLPPPTTAETSSGATSTTTTTSALAPVAAIIPPPPDVQPVIDKLAEYVARNGLKFETSVRAKNDQRFEFLQPWHQYNAYYEFKKQFFLQKEGGDSMQAVSAPEEAPTDSAPEKPSDAGEDGAPEDAAEVGARAGSGGKKEASSSKTVPDGKLVKASFAPISFAIKAKENDLLPLEKNRVKLDDDSDDDEESKEGQESSSSAANTNPAVAPPCVVVEEKKPQLTQEELEAKQAKQKLEDRLAAAAREKLAQASKESKEKQLQAERKRKAALFLQTLKNPLPEAEAGKIEESPFSVEESSTTPCPLLTGGRPLPTLEVKPPDRPSSKSKDPPREEEKEKKKKKHKKRSRTRSRSPKYHSSSKSRSRSHSKAKHSLPSAYRTVRRSRSRSRSPRRRAHSPERRREERSVPTAYRVSRSPGASRKRTRSRSPHEKKKKRRSRSRTKSKARSQSVSPSKQAAPRPAAPAAHSAHSASVSPVESRGSSQERSRGVSQEKEAQISSAIVSSVQSKITQDLMAKVRAMLAASKNLQTSAS [SFSWAP]	0.468	-0.526	50.4	50.6	-0.391	-0.0438
MYH9	-0.117	0.1	53.4	52.1	-1.58	0.618
MYO10	-0.176	-0.269	48.3	49.4	0.691	0.867
MYTAIPQSGSPFPGSVQDPGLHVWRVEKLKPVPVAQENQGVFFSGDSYLVLHNGPEEVSHLHLWIGQQSSRDEQGACAVLAVHLNTLLGERPVQHREVQGNESDLFMSYFPRGLKYQEGGVESAFHKTSTGAPAAIKKLYQVKGKKNIRATERALNWDSFNTGDCFILDLGQNIFAWCGGKSNILERNKARDLALAIRDSERQGKAQVEIVTDGEEPAEMIQVLGPKPALKEGNPEEDLTADKANAQAAALYKVSDATGQMNLTKVADSSPFALELLISDDCFVLDNGLCGKIYIWKGRKANEKERQAALQVAEGFISRMQYAPNTQVEILPQGHESPIFKQFFKDWK [CAPG]	-0.0974	0.272	50.2	50.3	0.941	0.63
MYTLLSGLYKYMFQKDEYCILILGLDNAGKTTFLEQSKTRFNKNYKGMSLSKITTTVGLNIGTVDVGKARLMFWDLGGQEELQSLWDKYYAECHGVIYVIDSTDEERLAESKQAFEKVVTSEALCGVPVLVLANKQDVETCLSIPDIKTAFSDCTSKIGRRDCLTQACSALTGKGVREGIEWMVKCVVRNVHRPPRQRDIT [ARFRP1]	-0.0831	0.0143		52.8	0.162	-0.992
NARFL	-0.0938	0.0811	54.2	53.8	0.41	0.802
NAV1	0.0198	-0.141	47.2	49	1.35	2.83
NBAS	-0.169	-0.197	49.8	50.1	0.362	1.51
NCOR1	0.0133	-0.0922	48.5	52.2	0.817	5.94
NDRG1	0.00645	0.246	53.1	53.6	1.68	-0.0804
NDRG3	-0.371	0.351	52.2	52	0.668	0.934
NF1	-0.137	-0.315	49.7	50.4	-0.998	-0.184
NFIB	-0.032	0.238	54.2	53.9	1.24	1.07
NRBP1	-0.15	0.099	51.9	51.4	0.757	0.7
NUDC	-0.106	0.405	51.9	52.4	0.837	-0.681
NUP205	0.203	-0.671	52.1	48.8	-4.5	-6.17
NUP214	0.0567	-0.301	50.5	49.8	-1.39	-1.03
OXCT1	-0.0718	0.23	53	52.8	-1.63	-1.92
OXSR1	-0.146	0.197	49.1	49.6	1.02	0.906

Substance	solubility change mitosis (log2) (HeLa Kyoto [1])	solubility in G1/S (log2) (HeLa Kyoto [2])	melting temperature (HeLa Kyoto [3]; cell cycle stage: G1/S) [°C]	melting temperature (HeLa Kyoto [3]; cell cycle stage: mitosis) [°C]	thermal stability score (HeLa Kyoto [4]; [5])	thermal stability score (HeLa Kyoto [4]; cell cycle stage: mitosis)
PARP4	-0.107	-0.0707	50.7	49.8	1.67	0.026
PCM1	0.65	-0.73	49.8	50.3	-0.276	0.507
PCNT	-0.162	-0.221	50.8	52.9	2.3	2.45
PELP1	0.451	-1.2	55.2	53.8	-1.93	-5.97
PKM	-0.106	0.116	57.8	57.4	-2.6	-2.54
PLEC	0.643	-2.57	53.2	52.7	-8.96	-8.24
PNKP	-0.0487	0.193	48.6	49.3	0.324	1.25
PNN	0.808	-1.25	48.6	50	0.124	3.19
PNO1	0.449	-0.779	50.3	50	0.178	0.628
PPIB	0.0983	0.0181	53.8	54.4	4.65	4.71
PPIC	-0.103	0.0897	53.6	53.4	1.01	-0.315
PPIE	0.13	0.351	49	51.7	1.18	2.29
PPIF	0.14	0.731	52.2	52.1	0.427	-1.83
PPP2R5A	-0.192	0.0389	50.8	50.5	0.702	1.43
PRRC2C	0.111	-0.328	55.6	55.2	-0.644	-2.2
PRSS21	-0.176	0.0531	52.9	52.9	0.469	0.197
PTBP3	0.15	-0.19	46.6	48	0.736	1.3
RAB14	-0.0891	0.0669	60.6	58.8	-1.89	-3.07
RALGAPB	-0.169	-0.0337	50.2	51	-1.55	-1.73
